Source: US20180244758A1 (MAPP BIOPHARMACEUTICAL, published 2018)

T1: RESTV GP on rVSV particles (Reston virus (RESTV), UniProt Q66799 34-677)
T1 sequence: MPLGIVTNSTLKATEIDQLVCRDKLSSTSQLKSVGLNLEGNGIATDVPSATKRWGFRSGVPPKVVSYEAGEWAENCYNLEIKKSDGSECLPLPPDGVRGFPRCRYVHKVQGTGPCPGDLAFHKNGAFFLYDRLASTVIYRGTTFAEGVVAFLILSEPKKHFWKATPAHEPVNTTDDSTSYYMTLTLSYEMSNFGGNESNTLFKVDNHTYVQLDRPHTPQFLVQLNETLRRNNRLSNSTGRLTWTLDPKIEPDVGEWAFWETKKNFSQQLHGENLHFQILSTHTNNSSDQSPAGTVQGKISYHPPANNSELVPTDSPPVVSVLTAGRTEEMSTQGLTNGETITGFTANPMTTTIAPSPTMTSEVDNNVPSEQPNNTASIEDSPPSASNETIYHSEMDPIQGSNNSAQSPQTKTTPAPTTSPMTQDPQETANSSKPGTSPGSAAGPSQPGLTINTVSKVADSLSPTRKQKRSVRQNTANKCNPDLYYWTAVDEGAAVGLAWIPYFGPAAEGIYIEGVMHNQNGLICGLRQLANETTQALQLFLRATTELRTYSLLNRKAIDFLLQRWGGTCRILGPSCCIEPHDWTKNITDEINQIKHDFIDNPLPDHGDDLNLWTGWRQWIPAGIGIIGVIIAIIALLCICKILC

T2: EBOV GP on rVSV particles (Ebola virus (EBOV), UniProt Q05320 33-676)
T2 sequence: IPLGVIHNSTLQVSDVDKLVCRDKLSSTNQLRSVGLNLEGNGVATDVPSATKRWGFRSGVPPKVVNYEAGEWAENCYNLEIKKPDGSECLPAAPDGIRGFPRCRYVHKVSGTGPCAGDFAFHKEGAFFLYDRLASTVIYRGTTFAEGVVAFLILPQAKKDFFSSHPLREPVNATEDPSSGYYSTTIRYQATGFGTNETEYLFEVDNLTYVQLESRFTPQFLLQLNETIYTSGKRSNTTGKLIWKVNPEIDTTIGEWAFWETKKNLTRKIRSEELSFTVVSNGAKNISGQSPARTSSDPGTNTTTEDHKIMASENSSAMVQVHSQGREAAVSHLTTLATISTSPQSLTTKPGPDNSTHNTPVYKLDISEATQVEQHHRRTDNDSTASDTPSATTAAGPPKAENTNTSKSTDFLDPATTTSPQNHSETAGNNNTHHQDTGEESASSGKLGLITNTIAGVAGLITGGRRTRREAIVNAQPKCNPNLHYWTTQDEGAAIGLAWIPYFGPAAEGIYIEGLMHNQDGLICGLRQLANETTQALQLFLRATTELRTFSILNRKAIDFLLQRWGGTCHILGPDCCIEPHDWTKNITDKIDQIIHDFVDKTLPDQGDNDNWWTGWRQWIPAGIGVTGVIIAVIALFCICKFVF

T3: TAFV GP on VSV pseudotype particles (Tai Forest virus (TAFV), UniProt Q66810 33-676)
T3 sequence: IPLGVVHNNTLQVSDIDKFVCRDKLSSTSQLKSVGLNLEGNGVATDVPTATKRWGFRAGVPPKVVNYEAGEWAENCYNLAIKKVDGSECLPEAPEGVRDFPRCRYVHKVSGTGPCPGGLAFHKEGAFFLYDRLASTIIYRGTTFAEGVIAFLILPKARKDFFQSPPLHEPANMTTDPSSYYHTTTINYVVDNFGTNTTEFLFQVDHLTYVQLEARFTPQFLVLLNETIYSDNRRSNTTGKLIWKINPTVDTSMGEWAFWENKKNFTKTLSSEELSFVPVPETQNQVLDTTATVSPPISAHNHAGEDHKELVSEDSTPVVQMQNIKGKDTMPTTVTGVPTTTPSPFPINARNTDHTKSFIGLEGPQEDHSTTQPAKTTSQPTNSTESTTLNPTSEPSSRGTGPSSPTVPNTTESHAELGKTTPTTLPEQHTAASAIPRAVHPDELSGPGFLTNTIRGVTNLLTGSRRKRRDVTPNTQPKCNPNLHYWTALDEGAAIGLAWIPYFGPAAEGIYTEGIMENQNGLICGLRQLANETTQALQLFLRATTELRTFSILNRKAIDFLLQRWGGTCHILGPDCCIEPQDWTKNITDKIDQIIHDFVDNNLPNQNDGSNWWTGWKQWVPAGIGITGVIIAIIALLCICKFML

T4: RESTV GP (Reston virus (RESTV), UniProt Q66799 34-638)
T4 sequence: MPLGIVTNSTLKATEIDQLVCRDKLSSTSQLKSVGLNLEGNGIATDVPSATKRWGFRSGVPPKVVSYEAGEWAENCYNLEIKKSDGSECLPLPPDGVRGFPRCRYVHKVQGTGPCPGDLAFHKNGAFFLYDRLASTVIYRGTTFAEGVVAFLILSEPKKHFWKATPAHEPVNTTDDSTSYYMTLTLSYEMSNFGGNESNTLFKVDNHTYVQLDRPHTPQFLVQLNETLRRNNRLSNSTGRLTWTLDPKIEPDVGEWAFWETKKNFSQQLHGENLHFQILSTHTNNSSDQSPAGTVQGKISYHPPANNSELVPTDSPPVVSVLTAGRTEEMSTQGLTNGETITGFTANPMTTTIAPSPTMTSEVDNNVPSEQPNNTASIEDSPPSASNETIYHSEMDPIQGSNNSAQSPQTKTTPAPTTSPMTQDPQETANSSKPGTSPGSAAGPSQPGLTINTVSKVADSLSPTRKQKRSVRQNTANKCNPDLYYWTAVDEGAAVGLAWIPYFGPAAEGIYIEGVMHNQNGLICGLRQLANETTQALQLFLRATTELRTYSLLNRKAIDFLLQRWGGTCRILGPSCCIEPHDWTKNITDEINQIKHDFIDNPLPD

B1: mAb PE-87 (antibody, V domains shown)
VH: QVQLVQSGVTLVQPGGSLRVSCAASGFTFSSYAMSWVRQAPGKGLEWVSAISGLGGSTYYADSVKGRFTISRDNSKNTLYLQMNSLRAEDTAVYYCAKDHRVWAAGYHFDYWGQGALVTVSS
VL: DIVLTQSPSTLSASVGDRVTITCRASQSISSWLAWYQQKPGEAPKLLISDASSLESGVPSRFSGSGSGTEFTLTISSLQPDDFATYYCQQYYSSPTFGGGTKVEIK
B2: mAb PE-24 (antibody, V domains shown)
VH: EVQLVESGGGLVQPGGSLRLSCAASGFTFSSYAMSWVRQAPGKGLEWVSEISGLGGSTYYADSAKGRFTISRDNSKSTLYLQMNSLRAEDTAVYYCAKDHRVWAPGYYFDHWGQGTLVTVSS
VL: DIVLTQSPSTLSASVGDRVTITCRASQSISSWLAWYQQKPGKAPKLLIYDASSLESGVPSRFSGSGSGTEFTLTISSLQPDDFATYFCQQYNRSPTFGGGTKVEIK
B3: mAb PE-16 (antibody, V domains shown)
VH: QVQLVQSGAEVTKPGASVKVSCKASGYTFTTYYMHWVRQAPGQGLEWVGIINPSGGITRYAQKFQGRVTLTRDTSTTTVYMELSSLRSEDTAVYYCARDRYPVLFATDYGMDVWGQGTTVTVSS
VL: DIVMTQSPATLSLSPGERATLSCRASQSVSGYLAWYQQKPGQAPRLLIYDASNRATGIPARFSGSGSGTDFTLTISSLEPEDFAVYYCQQRSIWPPGVTFGGGTKVEIK
B4: mAb PE-05 (antibody, V domains shown)
VH: QVQLQESGGGLVKPGRSLRLSCTASGFTFGDYAMSWFRQAPGKGLEWVGFLRSKAYGGTAEYAASVKGRFTMSRDDSKSIAYLQMNSLKTEDTAVYFCTRDGFRGSSWGYSYYGMDVWGQGTTVTVSS
VL: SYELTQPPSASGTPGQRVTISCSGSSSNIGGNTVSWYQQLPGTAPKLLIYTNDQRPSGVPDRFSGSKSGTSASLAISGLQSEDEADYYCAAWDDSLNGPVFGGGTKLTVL

Legend:
[1] = target: T1, RESTV GP on rVSV particles; assay: cell-based or functional assay
[2] = target: T2, EBOV GP on rVSV particles; assay: cell-based or functional assay
[3] = target: T3, TAFV GP on VSV pseudotype particles; assay: cell-based or functional assay
RESTV GP = target: T4, RESTV GP; assay: ELISA, GP antigen coated

Binder | rVSV-GP neutralization IC50 [1] | IC50 (nM), neutralization of rVSV-GP [2] | IC50 (nM), neutralization of rVSV-GP [3] | binding result (RESTV GP)
B1 | 0.2 nM | 1 nM | 0.9 nM | 
B2 | 0.2 nM |  |  | 
B3 |  |  |  | no binding (tested: 0.2 µg/ml)
B4 | 22 nM |  |  | 
